“Also recorded” adds a separate entry of the source. Where no end group is shown, it is not given here. The star is where a group is joined. FITC = O=C1OC2(c3ccc(O)cc3Oc3cc(O)ccc32)c2ccc(NC(=S)*)cc21
Legend:
[1] = test system: DVL1; experiment: DVL1 stabilization by MLN4924 in HEK293T cells co-transfected with KLHL12; assay type: cell-based; settings: western blot
Description: (§1) We further investigated whether the ‘PGGPP' motif regulates the KLHL12-dependent degradation of DVL1. WT and mutant DVL1 constructs were therefore transfected into HEK293T cells in the presence or absence of full-length KLHL12. […] By contrast, the levels of the DVL1 mutants were unchanged by KLHL12 co-expression.
(§2) Full-length Flag-KLHL12 and HA-DVL1 constructs were transfected into HEK293T cells at 60% confluency with polyethylenimine. 40 h after transfection, cells were treated with cycloheximide (CHX) for 1 h or MLN4924 for 4 h and then harvested and lysed. Protein levels were analysed by Western blotting (anti-Flag antibody, Sigma-Aldrich, F1804; RRID:AB_262044 and anti-HA antibody, Biolegend, 901501; RRID:AB_2565006).

[2] = biological target: T1, KLHL12 Kelch domain (Homo sapiens, UniProt Q53G59); experiment: Fluorescence polarization peptide binding to KLHL12; settings: N-terminal FITC-labelled peptide 40 nM, 50 mM HEPES pH 7.5, 300 mM NaCl, 0.5 mM TCEP, 0.01% Triton-X, mean, n = 3
T1 construct: Human KLHL12 Kelch domain (Uniprot Q53G59-1, residues 268–567); His6 (N); made in house; host or cells: E. coli BL21(DE3)-R3-pRARE, vector pNIC28-Bsa4 (Addgene_38908)
T1 sequence (Q53G59 268-567): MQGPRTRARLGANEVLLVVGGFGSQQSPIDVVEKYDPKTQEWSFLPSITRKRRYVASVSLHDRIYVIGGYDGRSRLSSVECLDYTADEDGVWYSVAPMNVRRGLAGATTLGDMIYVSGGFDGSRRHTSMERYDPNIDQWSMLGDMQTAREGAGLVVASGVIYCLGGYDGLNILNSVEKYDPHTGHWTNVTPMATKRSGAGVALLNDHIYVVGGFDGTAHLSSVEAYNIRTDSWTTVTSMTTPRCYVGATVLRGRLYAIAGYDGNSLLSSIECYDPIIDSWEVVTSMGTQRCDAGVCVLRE
Description: Human KLHL12 Kelch domain (Uniprot Q53G59-1, residues 268–567) and KLHL7 Kelch domain (Uniprot Q8IXQ5-1, residues 283–586) were expressed from the vector pNIC28-Bsa4 in BL21(DE3)-R3-pRARE cells and purified by nickel affinity and size exclusion chromatography as described previously. Both plasmids are deposited in addgene (RRID:Addgene_38908 and RRID:Addgene_39023, respectively).
Fluorescence polarization assays were performed in 384-well plates using a Synergy 2 microplate reader (BioTek) with excitation and emission wavelengths of 485 nm and 528 nm, respectively. Peptides were synthesized, N-terminally labelled with FITC and purified by Tufts University Core Services (Boston, MA). Binding assays were performed in 10 µl volume at a constant labelled peptide concentration of 40 nM and indicated Kelch domain protein concentrations in a buffer containing 50 mM HEPES, pH 7.5, 300 mM NaCl, 0.5 mM TCEP and 0.01% Triton-X. Binding data were corrected for background of the free labelled peptides (no protein). For KD determination, data were fitted to a hyperbolic function using Sigma Plot software (Systat Software, San Jose CA). KD values represent mean ± S.E. (n = 3).

[3] = biological target: T2, Human KLHL12 Kelch domain (residues 268-567) (human, UniProt Q53G59-1 268-567); experiment: peptide or protein array; initial DVL1 SPOT array: 20-mer peptides on cellulose membrane, incubated with 0.4 µM His6-tagged Kelch domain protein in PBS for 1 h at 4°C, bound protein detected with HRP-conjugated anti-His antibody; settings: both partners purified
T2 construct: KLHL12 Kelch domain, human, Uniprot Q53G59-1, residues 268-567; the structure traces residues 279-567; The His6 tag is kept in the SPOT arrays (detected with anti-His antibody); Expressed from the vector pNIC28-Bsa4; also called 6 x His-KLHL12 Kelch domain; His6-tagged KLHL12 Kelch domain
T2 sequence (looked up): T1 sequence (Q53G59 268-567)

[4] = test system: full-length Flag-tagged KLHL12; experiment: Co-immunoprecipitation of HA-DVL1 variants with Flag-KLHL12 in HEK293T cells; assay type: cell-based; settings: MLN4924 4 h, anti-Flag immunoprecipitation, western blot
Description: To validate the identified ‘PGGPP' sequence as degron motif for DVL1 recruitment and degradation by the KLHL12, we tested the binding, ubiquitination and stability of DVL1 in HEK293T cells. Two variants of full-length HA-tagged DVL1 were prepared in which the 657-‘PPGGPP' motif was either mutated to ‘AAAAAA' or deleted. Immunoprecipitation of the complex using full-length Flag-tagged KLHL12 was performed in cells treated with the neddylation inhibitor MLN4924 to ensure the stability of all transfected DVL1 variants. […] To confirm that the interaction promoted DVL1 ubiquitination, we next transfected Flag-tagged KLHL12 and HA-DVL1 variants into cells pretreated with the proteasome inhibitor MG132. DVL1 was immunoprecipitated by anti-HA agarose and its ubiquitination status probed by immunoblotting for the presence of high molecular weight poly-ubiquitin conjugates. A marked reduction in the ubiquitination of the two DVL1 mutants was observed compared to wild-type consistent with the importance of the ‘PGGPP' motif for KLHL12 recruitment (figure 5b). […]
Full-length DVL1 variants (Uniprot O14640-1) and KLHL12 were subcloned into a pcDNA3 vector, with N-terminal HA tag and Flag tag, respectively. […] Results were analysed using western blotting (Anti-Flag antibody, Sigma-Aldrich, F1804; RRID:AB_262044; Anti-HA antibody, Biolegend, 901501; RRID:AB_2565006).

[5] = test system: full-length KLHL12; experiment: Stability assay of DVL1 variants with or without KLHL12 in HEK293T cells; assay type: cell-based; settings: KLHL12 co-expression versus DVL1 alone, cycloheximide 1 h, western blot, GAPDH loading control
Description: as §1, §2

[6] = test system: KLHL12; settings: parallel study, ref [36] Zhao et al.; cited from earlier work
Description: The omitted proline position is substituted by a glycine or alanine in pa ...

[7] = biological target: T2, Human KLHL12 Kelch domain (residues …); experiment: fluorescence polarisation; 40 nM FITC-labelled peptide, Kelch domain protein titrated; 50 mM HEPES pH 7.5, 300 mM NaCl, 0.5 mM TCEP, 0.01% Triton-X; hyperbolic fit, n = 3; settings: both partners purified

NS(=O)(=O)OC[C@@H]1C[C@@H](n2ccc3c(N[C@H]4CCc5ccccc54)ncnc32)C[C@@H]1O [MLN4924]
stability of DVL1 WT on MLN4924 ([1]; HEK293T cells co-transfected with DVL1 WT and KLHL12, MLN4924 4 h): stabilized DVL1 WT; also recorded: rescued the stability of DVL1 WT | stability of DVL1 mutants on MLN4924 ([1]; HEK293T cells co-transfected with DVL1 mutants and KLHL12, MLN4924 4 h): not DVL1 mutants

CC(C)C[C@H](NC(=O)[C@H](CCC(=O)O)NC(=O)[C@H](CCCNC(=N)N)NC(=O)[C@@H](NC(=O)[C@@H]1CCCN1C(=O)[C@@H]1CCCN1C(=O)CNC(=O)CNC(=O)[C@@H]1CCCN1C(=O)[C@@H]1CCCN1C(=O)CNC(=O)CNC(=O)[C@@H](NC(=O)[C@@H](NC(=O)[C@@H](NC(=O)[C@H](Cc1ccc(O)cc1)NC(=O)[C@H](C)N)[C@@H](C)O)C(C)C)C(C)C)C(C)C)C(=O)N[C@@H](C)C(=O)N[C@@H](C)C(=O)N[C@H](C(=O)O)C(C)C [Spot A13]
Kd [2]: 22.3 µM

B1: DVL1 20-mer peptide, residues 650-669, printed on the SPOT array (spot A13) (peptide, UniProt O14640-1 650-669, looked up)
peptide: AYTVVGGPPGGPPVRELAAV
notes: source: synthetic peptide, synthesized directly on a modified cellulose membrane with a polyethylglycol linker (SPOT)
binding result [3]: binds

B2: DVL1 WT: full-length HA-tagged wild-type DVL1 expressed in cells (protein)
chain: MAETKIIYHMDEEETPYLVKLPVAPERVTLADFKNVLSNRPVHAYKFFFKSMDQDFGVVKEEIFDDNAKLPCFNGRVVSWLVLAEGAHSDAGSQGTDSHTDLPPPLERTGGIGDSRPPSFHPNVASSRDGMDNETGTESMVSHRRERARRRNREEAARTNGHPRGDRRRDVGLPPDSASTALSSELESSSFVDSDEDGSTSRLSSSTEQSTSSRLIRKHKRRRRKQRLRQADRASSFSSITDSTMSLNIVTVTLNMERHHFLGISIVGQSNDRGDGGIYIGSIMKGGAVAADGRIEPGDMLLQVNDVNFENMSNDDAVRVLREIVSQTGPISLTVAKCWDPTPRSYFTVPRADPVRPIDPAAWLSHTAALTGALPRYGTSPCSSAVTRTSSSSLTSSVPGAPQLEEAPLTVKSDMSAVVRVMQLPDSGLEIRDRMWLKITIANAVIGADVVDWLYTHVEGFKERREARKYASSLLKHGFLRHTVNKITFSEQCYYVFGDLCSNLATLNLNSGSSGTSDQDTLAPLPHPAAPWPLGQGYPYQYPGPPPCFPPAYQDPGFSYGSGSTGSQQSEGSKSSGSTRSSRRAPGREKERRAAGAGGSGSESDHTAPSGVGSSWRERPAGQLSRGSSPRSQASATAPGLPPPHPTTKAYTVVGGPPGGPPVRELAAVPPELTGSRQSFQKAMGNPCEFFVDIM
modifications: left off: HA, N-terminal, kept
notes: full-length HA-tagged wild-type DVL1 expressed in cells
binding of DVL1 to KLHL12 (immunoprecipitation) [4]: bound robustly | binding of DVL1 to KLHL12 (immunoprecipitation) ([4]; listed as Wild-type (WT) DVL1): bound robustly to KLHL12 | DVL1 protein level / stability [5]: striking reduction in the DVL1 protein level

B3: DVL3 (Zhao et al.): DVL3, KLHL12 binding by NMR in a parallel study by Zhao et al. (protein, UniProt Q92997 1-716, looked up)
Segment polarity protein …: MGETKIIYHLDGQETPYLVKLPLPAERVTLADFKGVLQRPSYKFFFKSMDDDFGVVKEEISDDNAKLPCFNGRVVSWLVSAEGSHPDPAPFCADNPSELPPPMERTGGIGDSRPPSFHPHAGGGSQENLDNDTETDSLVSAQRERPRRRDGPEHATRLNGTAKGERRREPGGYDSSSTLMSSELETTSFFDSDEDDSTSRFSSSTEQSSASRLMRRHKRRRRKQKVSRIERSSSFSSITDSTMSLNIITVTLNMEKYNFLGISIVGQSNERGDGGIYIGSIMKGGAVAADGRIEPGDMLLQVNEINFENMSNDDAVRVLREIVHKPGPITLTVAKCWDPSPRGCFTLPRSEPIRPIDPAAWVSHTAAMTGTFPAYGMSPSLSTITSTSSSITSSIPDTERLDDFHLSIHSDMAAIVKAMASPESGLEVRDRMWLKITIPNAFIGSDVVDWLYHNVEGFTDRREARKYASNLLKAGFIRHTVNKITFSEQCYYIFGDLCGNMANLSLHDHDGSSGASDQDTLAPLPHPGAAPWPMAFPYQYPPPPHPYNPHPGFPELGYSYGGGSASSQHSEGSRSSGSNRSGSDRRKEKDPKAGDSKSGGSGSESDHTTRSSLRGPRERAPSERSGPAASEHSHRSHHSLASSLRSHHTHPSYGPPGVPPLYGPPMLMMPPPPAAMGPPGAPPGRDLASVPPELTASRQSFRMAMGNPSEFFVDVM
binding to KLHL12 by NMR [6]: confirmed the binding

B4: FITC-labelled DVL1 peptide, residues 650-669 (peptide, UniProt O14640-1 650-669, looked up)
peptide: {FITC}-AYTVVGGPPGGPPVRELAAV
notes: source: synthetic peptide (Tufts University Core Services), purified
Kd [7]: 22.3 µM
